Measured values as given in the DeepSol protein solubility set.

Assay: soluble on expression in E. coli; label from the status in PepcDB or PDB records

Sequence	soluble on expression in E. coli
MGSDKIHHHHHHMNKEAIESLLIHVIGTDVIVNEVRPIGGGNTSRAFAVKSSQGNFFIKTNRAGLVDMFEKEVKNLELLRKVLPSNTPEVVGYGTIDHVSYFILKLIEPGRRVADFWSDFGRTLSELHRVTGNTFGLEYDNYIGSLPQSNKQNSNWVDFFVNERIWPQAKKAEKVLGTEIVGMISKLSDRLPDLLTQSRPTLLHGDLWSGNFTLNQAGTVCLVDPATYYGNREIEIAFTKLFGGFEDEFYAAYSEVLPLDKGFFDTRADIYNLYPLLVHVNLFGGWYVASVRETLKRFV	not soluble
MGSDKIHHHHHHMNKKSSLNNLLYIQEHRSCRNYLEKVENGFKYIEFSHEEVILEKEISWNYLLFVLEGECIINCNQFRERLFQANCMVLLPKTAMVEIKVIAGTRLLSLSFDVPLNVCDKFILQSLTGLCRKLDYNFQSLAIRYPLPPYLEIVTYCLTNKMDCGHFHTLLQQELFFLLRGFYLKEELALLFHPIISAELTFKDFVIGNYFKVSNVNDLISLSNMCKSSFYCKFKEVFGMTAKQWLLKQRNTHILNKVMTSETTVGELMEEFRFESQAHFTHYCKQHFNCTPRELIMKYQVVNQ	not soluble
MGSDKIHHHHHHMNKLEERSQHRKSRFRFLVISTFWRVLLLLKNDAEPLFHLGNIHYAYGHKASAMNYWKEAVSKNREHEKAWHNLVQCAVIQEEWEQAAEGLTILCRNHPTRFEYMSLYTHALKKLGKKEELEEWYLSHINGPHHEWAIEGLGMLYIRTRREIDAFKLLSPFVRKFPNRPVGLKILGISSIRTNQYEAGLTFLEKSLELKEDKEVKSLVDRVKRLKKVRGGNR	not soluble
MGSDKIHHHHHHMNKLRILHLNDLHSHLERFPVIERFFAEKSHEEVESLSFDLGDNVDRVHPLTEATEGQFNVELMNRLDLTAATIGNNEGLGLTHEMLSHLYDEANFPVLLSNLATNFAQSEPLIVTTSFGLRIGLIGLTAPYVLAYPQAGWELSDPFVVLDELLPKLDCDFTILLSHLGKNVDEQIAKDYDEIDLIIGAHTHHLFEHGAQVNQTLLAAAGRYGEYVGQIDLTFNENNQLVDAQIEAIATNTLPQRKSDLVETNGWELRGHKLLEGTVVADLPKALPNVLPDFKGSHYLAKIFADYGNTKLCLMNSGLLVTDELPNHLTLDDLHEFLPHSIRLVRFTFTGEELRQVLLEIMDVSDFLATQKIQGMGFRGKTFGSLIFHGIEPREGDFYIKNSENQSLEKISDEESYQIVLPDQYLFAWYFPLLKKLGKSEILFPYFLREIVAEHFKNK	not soluble
MGSDKIHHHHHHMNKPERPSHLAAARREPTHYLTADERAAKGRALRDTVPRGSQSGWQAPEDRRDPIELLNESNAGRILDLVPIRYGRMAASPFAFYRGSASLMAADLATTPSSGIRVQACGDAHLMNFGGFATPERNIIFDINDLDETLPAPFEWDLKRLAASLAIAAEHLALPKSDAARVVTDVVREYRERMFNYGWMRALDVWYDRIDLQKYEDRSGDPEIVAAARKRLAQRIEGERRKTVPDYLYPKLVSEEGAKPRIKDEPPLIFHPTEELAPGMGSDYAQAIASYRSSLAEHVRVLFDRFHFFDMAIKVVGVGSVGTMCGVGLFLAADNDPLFLQVKEARASVLEPYAGKSLHANHGERVIAGQRLMQAASDVFLGWTRGENGRDFYLRQLRDMKLSAVIEDWDTGMLRQYGRMCAHALARAHARSGDAAMMAGYMGSGQAFDDAICEFATEYCSQNRSDFRTFVAAIREGRIEARLEAN	not soluble
MGSDKIHHHHHHMNKPKVPPTITEQPDEQTFAYLLAHIQQTRQQVFAQVNTALIELYWSVGKTISEKVVSAGWGKGVVKQLAAYLASQAPDIKGFSDKNLWRMKQFYETYQHDIKLASLVRVLPWTHNTIIFSRCKSNREREHYLMLVQRERLSSRELERHINAAHFERSLIEQPKLSAVLRQSHPIANTIFKDNYTLEFLGLPSSHSESDLQKAIINNLKTFILELGKDFIFIDEEYRLQVGNQDFYIDLLFFHRGLAALVAFELKIGKFSPQHLGQLDFYLEALDRDVKKPHENPSIGVLLCRDKDDEVVEYALSRNLSPTLVAQYQCQMPDKQLLQAKLHQLLQDLPAQDELASQHMTEQMPRQGEYNE	not soluble
MGSDKIHHHHHHMNKTITIDPVTRIEGHARVFIDLDDGGALKAAGLVVNELRGFEKILTGMDADRMPLVTARICGVCPTAHHLAATNALDNAAGVEPPTAAKLLRELMYMGHLIHSHCLSLFVLQGPDLVLGLDADPAIRNVVGVVQAVPDIARKALQCRSIGQKINELVGGRGTHPVTSVAGGIAFVLDADRERQLNAWIQEAHGLVLELAPVVKQLLMKMLDANPAMLEQWVIPAWSVGTVKGDGTIALVNGEIRAIDESGARKAQFPTAGYDTHLSEAAVDFSYMKQVSFVEGETRHDYRVGPLARLNISDRYGTPLADREREEFIRTVGRPCHANALQPWARLIELLYCTERAQEIMASPEIHGETRVPVKFSGGRGVGHVEAPRGTLIHDYEIDENGIVRAANLIVATQQNYALINTMIAQAATSHVINRPDDQALLNAVEFGIRCYDPCLSCATHALGAMPLEIVVNRADRPHLIRRNC	not soluble
MGSDKIHHHHHHMNKYLNNINASYCCGCSACVHKCPKQCLRMSQDKDGFFFPIVNNREACIDCSLCAKVCPMENMVESDYPHTFYGAYNTNKTDIVNSSSGGIYPSLAKWIISQGGIVFGASLDDEHKLYHIGVSTESDIQKTIGSKYFQSEIRDTYVECKKELDKGRLVLYTGTPCQVHGLKRYLGKDYDNLYTADVICHGVPSSKMFDAYIDFLEKKHNGKLVDINFRDKKRNGWSITLRYTIEYSNDKRKDYYLINKLSEYFMAFLGGYIERESCYSCPFSSMRRPGDITMGDFWGYQFKRPDLKHDEGLSLIIVNSEHGKRIVDVLHRNGVQFNAVDEECVKASENKNLYKPTLRPEVRSVVYDELQNFGFEYIAKKYFRRTQTLRNKAKNYMPVALVNIIKKLK	not soluble
MGSDKIHHHHHHMNLLKIIDDLQLEKIDQEEFLKPALRRGLFKKASDFSLKAALTSLPFALFAMPRIVQASTQANTQSVTDTLNYALTLEYLEEAFYVQGLAKSGLIDSADMTIFNQIKKHESAHVVFLKNVLGSAANPSPAFDFGTAFDSYANFLATAQALEDTGVRAYKGQAGNLITNKVALTAALQIHSVEARHASEVRRLRMLNGWIGVGEAGATYGAGEDANFPAESNLTQGGVDLSILASADVTMTNIAEAFDEPLDKNTVFGIAQGFIVS	not soluble
MGSDKIHHHHHHMNLPLNVAPVAAAPASPIVELRQYTLNPGQRETLIALFDREFIESQEATGMTIIGQFRDLDRPDMFVWLRGFDGMDTRKEALAAFYDGPVWAAHRDAANATMTDSDDVLLLKPAWPSAGFDLSGLQRPVSAEQENSSNENHLGGIVVIRIHHLRSGAETEFASRFAAEAALIMKAHGVRLLAAFASEHAQNSFPRLPVRASENVFLSIARFDSAEAHASQEAALAAAPAWQSFLRAVQLDLTKPTETLRLSPTSRSLVGARFRMPR	not soluble
MGSDKIHHHHHHMNLPSILVIDDLPDNFDVIETLLSEQDYTLHYVASGQEAIASLNLFQPDLILLDVMMPGMDGIEVCQRIKAMPQWQSVPIIMVTALTAKEDLARCLKSGADDFISKPINALELRARLHSMLRIKQQYDKIQTLSNIQTSTIKVLESTLDELRGNLAAALPHELNTPLNGIVGTISILMADIENMDTGEIQELLGWVDLSARNLERLIKQLLLYLELELSTNQQQNIASESTHFSIAVIEAILQSHAPSVNRRDDLMFAIEEAEVSISARYLAIIIYELVDNALKFSRRGTTIKISSQVVAGMLNVYIHDFGRGMTEEQISKIGAFMQFERKTYEQQGIGMGLKLAKQIIESHGGLFSISSVYKKETMVHIALPIAYSRYLS	not soluble
MGSDKIHHHHHHMNLRQLYYFKKLAEKEHYTIAAAELSITQPSLSHSIAELERELGVYLFEKQGRNIRLTKYGRFYLTYVEKSLAELEKGEKLLHELTSPSHGNIDLGFIYTMGAHTVPELVQNFTKAENHKDITFSFYQGATKSIIPDLKNEKFDLAICSYVENEPDIEFLPLTKQELVIVVAENHPLAKYDSIDLKDTADYSYIFFSDTSGLRPLIDSLFAEINIQPKIGCYVEEDTAMVGLVSVDYGISIMPKISSLAHYNVKVLSINEPKHERFIYLASLKNHYISPASKAFKDFALRYGEKHFL	not soluble
MGSDKIHHHHHHMNLSRVGKHGTGMWNYSKNIADMLHESGFLDSIICSKDHVEYFSNRYKDPKVDIIITPEIVSNTMKVSKFRPLIWLSYSYFLGCKLVLSKKKKDVALLSTTHHSIPFFKNQFITIHDLRPAFYPDSKLQEIYFSHYLPRKVKELRGVFTVSETVKNEIEEHMGVARSDIQVVYNSVDPSLRPDGTDNSEQATIKNTFLMVGASWKHKNAHSFLKNFLAYHKDNYSAVIVCGQTDYFDELKSLVATLGLENNVTFKHHISEQELSSLYKTSFALVYPSLSEGFGIPPIEAMSLSLPVIVSDIPVFKEILGEAAVYVDPNVRESWEHAVDTLKVSRENVIDTGLQRVNLYSYERCKDMLMLALNNINEKSR	not soluble
MGSDKIHHHHHHMNLTIRQFRAFLAVADLRSFTAASKYLCITQGAVSGLINEMESQMEVSLFDRTSRVVKLSPDGEKFLPAAMRVVEEFQRAENYARDLKEIKKSLVRVVGAPLIACAFLPQIIHAFKRQHPHTHVQLIDKPMSQLQKSIMLGEADFGIGPERPLEPEIDKQTLFTTEIALYCHPDYRLHKKTVRWEEIQSEELIAVGNESIPMISATAGVRIKPKMTVEHMATAMSLAAQCEGVVIAGTFSRHYAKSYQLATCSLTPPLRRNMNLYFHAWRAQTPATQRFRDFLFSYVDEHHDAPANQR	not soluble
MGSDKIHHHHHHMNNEFYNQGLEKAKQRDYAGAIEEFSRALKLTPYFAEAYLQRGLAYYDSGAILLAVSDYTEVIRINPESVEAYYCRSLARLALKNLPGALEDVEQAIRLNINYAAAHHLRGTVRRKQGYIQDAIASFKQAAELYLQQKDQENCRLCLEKIKQLQPPKQSTIQPTKSPIAPITSVNEYFTQLLDKAEQGDTREAIADLNWILQADPQDAQAYCCRGVVRCKMGNYREAIADFNQALQLNFQDAVVYRNRGKARSLLGDHRGAIADFNQAIQIQPEDTLGYVARGNTYRAMGNYLGAIQDYGKALQINPHDAQAYYNRGIAYTFLEEMQNAVEDYQRAASIFCEQQDWENYQLTQDSLKQIQTSIPEYKQQKSNVLRQKLLRLVGGYWEIAQRLIQQQKDYQPGMSEEWYMQKVIDDLERDRGR	not soluble
MGSDKIHHHHHHMNNIGLILEGGGMRGVYTAGVLDFFMDKNLYFPYVSGVSMGACNAASYVSKQRGRTKSVTVDLADDSRYISLKNFIKYKSIFGMDFIFDEVPNKLFPFDFNTFSNSTQKLVIGTTDCLTGKEVYFSHSSSNDILDIIRASSSLPFISEPVKINNYTLMDGGIADPIPIKRSIEDGNAKNVLILTREADYIKNPFKHNWILSKKYSQFKGLCKAILNRHKLYNETLKYISHLENTGKVFIIRPTFSPKVKRIEKNKSRLNALYLEGYKDAEKNYDKLLQFLNSN	not soluble
MGSDKIHHHHHHMNNLDIKTLGQVFTPKKIVDFMLTLKHNHGSVLEPSAGDGSFLKRLKKAVRIEIDPKICPKNALCMDFFDYPLENQFDTIIGNPPYVKHKDIAPSTKEKLHYSLFDERSNLYLFFIEKAIKHLKPKGELIFITPRDFLKSTSSVKLNEWIYKEGTITHFFELGDQKVFPNAMPNCVIFRFCKGNFSRITNDGLQFLCKKGILYFLNQSYTQKLSEVFKVKVGAVSGCDKIFKNEKYGNLEFVTSITKRTNALEKMVFVNEPNDYLLQHKDSLMQRKIKKFNENNWFEWGRMHHISPKKRIYVNAKTHQKNPFFIHQCPNYDGSILALFPYNQNLDLQNLCDKLNAINWQELGFVCGGRFLFSQRSLENALLPKDFLNLG	not soluble
